From patent US8546531B2, “Methods and reagents for preparing multifunctional probes” (The General Hospital Corporation, priority 2008, dated 2013)

System: integrin-expressing B16F0 melanoma
Conditions: mouse, in vivo, iv
Description: Approximately 1·10^6 B16F0 murine melanoma cells (from C57BL6 mice) in PBS (40 μL) were injected s.c. into the right hind paw of 6-8 weeks female C57BL6 mice (Charles River Laboratories). After 4 weeks, tumors reached a size suitable for nuclear imaging experiments.
SPECT imaging co-registered with high-resolution CT was performed on a X-SPECT™ system (Gamma Medica, Northridge, Calif., USA). The SPECT system has two gamma cameras, equipped with 1 mm diameter medium-energy pinhole collimators. The solid state CT is mounted on the same gantry as the gamma cameras enabling high quality image fusion. The SPECT images were reconstructed using OSEM (ordered subsets expectation maximization) and CT images were reconstructed using a modified Feldkamp cone-beam reconstruction algorithm (COBRA). The ^111In-MSAP-RGD probe (300 μCi in 150 μL) was injected (iv, tail vein) and after 2 hours mice were anesthetized (isoflurane). CT (256 projections, 50 kV, 0.5 mA) was performed followed by a SPECT acquisition with parameters of 64 projections, 30-120 seconds per projection and a radius of rotation of 3.5 cm giving a resolution of 1.8 mm. […] Mean SPECT pixel intensity and tumor volumes were determined by designing regions of interest (ROIs) on the hind paws of the micrometer resolution CT scans and extrapolating these ROIs to the fused SPECT data using Osirix software. […]

N=C(N)NCCC[C@@H]1NC(=O)[C@H](CCCCNC(=O)CCCN2C(=O)CC(SC[C@H](NC(=O)[C@H](CCCCNC(=O)CCCCCNc3ccc([N+](=O)[O-])c4nonc34)NC(=O)CN(CCN(CC(=O)O)CC(=O)O)CCN(CC(=O)O)CC(=O)O)C(N)=O)C2=O)NC(=O)[C@@H](Cc2ccccc2)NC(=O)[C@H](CC(=O)O)NC(=O)CNC1=O (stereo partly shown) (111In complex, metal not drawn) [MSAP-RGD probe]
distribution of the probe within the tumor: occurred in parts of the tumor with high CD31 (endothelial cell maker) levels and CD11b (monocytes/macrophages marker) levels
